One molecule from patent publication US20140308685A1 (SHINO TEST, published 2014) can be followed below.

The target of experiment [1] is T1, partial-length periostin (R2 region) (Homo sapiens (Human), UniProt Q15063 235-378, limits assumed).
T1 sequence: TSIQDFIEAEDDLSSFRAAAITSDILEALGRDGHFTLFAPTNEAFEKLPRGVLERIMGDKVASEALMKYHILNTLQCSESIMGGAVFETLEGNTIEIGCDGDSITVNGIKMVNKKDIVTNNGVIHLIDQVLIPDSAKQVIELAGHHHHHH
Briefly: ELISA on immobilized antigen, POD-labeled anti-mouse IgG, A405. On the technique in general: An ELISA detects its analyte on a solid surface through an enzyme-linked reagent.

Experiment [2] concerns the target T2, partial-length periostin (EMI region) (Homo sapiens (Human), UniProt Q15063 22-110, limits assumed).
T2 sequence: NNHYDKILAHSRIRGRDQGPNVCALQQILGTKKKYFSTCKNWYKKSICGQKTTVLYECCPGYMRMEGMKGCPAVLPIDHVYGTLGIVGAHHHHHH
The experiment is described as above.

For experiment [3], the target named is T3, partial-length periostin (R4 region) (Homo sapiens (Human), UniProt Q15063 496-631, limits assumed).
T3 sequence: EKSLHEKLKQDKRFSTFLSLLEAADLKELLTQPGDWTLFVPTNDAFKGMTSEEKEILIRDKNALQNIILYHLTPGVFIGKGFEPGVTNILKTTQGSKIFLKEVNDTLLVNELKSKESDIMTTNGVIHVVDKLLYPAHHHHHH
The experiment is described as above.

Experiment [4] addresses T4, partial-length periostin (R1/R2 regions) (Homo sapiens (Human), UniProt Q15063 111-378, limits assumed).
T4 sequence: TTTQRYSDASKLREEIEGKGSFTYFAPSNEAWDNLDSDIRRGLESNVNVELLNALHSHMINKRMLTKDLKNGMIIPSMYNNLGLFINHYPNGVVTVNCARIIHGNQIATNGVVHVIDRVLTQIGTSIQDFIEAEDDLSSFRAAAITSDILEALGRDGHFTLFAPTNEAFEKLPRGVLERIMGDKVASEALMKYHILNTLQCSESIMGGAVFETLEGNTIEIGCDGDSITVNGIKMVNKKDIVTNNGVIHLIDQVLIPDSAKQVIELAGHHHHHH
The experiment is described as above.

The target of experiment [5] is T5, partial-length periostin (C-terminal region) (Homo sapiens (Human), UniProt Q15063 632-836, limits assumed).
T5 sequence: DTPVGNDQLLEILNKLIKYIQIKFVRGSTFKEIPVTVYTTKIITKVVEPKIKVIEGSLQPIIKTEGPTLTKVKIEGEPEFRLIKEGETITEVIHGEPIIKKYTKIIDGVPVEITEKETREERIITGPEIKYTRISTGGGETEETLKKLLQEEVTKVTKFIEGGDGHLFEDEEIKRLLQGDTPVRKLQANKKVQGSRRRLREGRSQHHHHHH
The experiment is described as above.

Experiment [6] has as its target T6, periostin (S2 recombinant periostin protein tagged with V5/His) (Homo sapiens (Human), UniProt Q15063 22-836, limits assumed).
T6 construct: also called osteoblastic specific factor 2; OSF2
T6 sequence: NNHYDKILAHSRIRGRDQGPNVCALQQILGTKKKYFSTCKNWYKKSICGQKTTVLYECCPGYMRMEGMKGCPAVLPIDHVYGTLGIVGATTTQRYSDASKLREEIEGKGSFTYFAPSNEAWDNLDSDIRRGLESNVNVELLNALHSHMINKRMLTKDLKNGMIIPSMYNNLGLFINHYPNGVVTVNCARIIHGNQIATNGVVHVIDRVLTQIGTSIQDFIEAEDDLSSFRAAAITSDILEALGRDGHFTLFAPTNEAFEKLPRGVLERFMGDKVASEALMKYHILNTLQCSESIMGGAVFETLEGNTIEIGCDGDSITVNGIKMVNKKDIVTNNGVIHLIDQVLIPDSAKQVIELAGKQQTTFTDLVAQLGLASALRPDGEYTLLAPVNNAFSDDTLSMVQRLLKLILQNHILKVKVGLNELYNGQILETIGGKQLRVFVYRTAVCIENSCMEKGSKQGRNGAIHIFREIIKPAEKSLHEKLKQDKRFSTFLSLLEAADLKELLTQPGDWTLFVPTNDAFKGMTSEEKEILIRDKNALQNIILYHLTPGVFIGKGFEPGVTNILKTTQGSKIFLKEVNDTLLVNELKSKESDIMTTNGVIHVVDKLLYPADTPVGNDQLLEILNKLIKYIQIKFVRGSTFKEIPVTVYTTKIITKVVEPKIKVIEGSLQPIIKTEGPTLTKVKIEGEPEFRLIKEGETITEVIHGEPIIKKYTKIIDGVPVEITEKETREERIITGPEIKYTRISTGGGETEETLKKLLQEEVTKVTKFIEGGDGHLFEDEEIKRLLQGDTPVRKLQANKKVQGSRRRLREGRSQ
In words: ELISA on immobilized antigen (5 ug/mL), A405; bound if difference to control well is 0.2 or more. As to the method:
(8) Subsequently, the absorbance in each well of the microtiter plate in (7) at 405 nm was measured with a spectrophotometer.
Based on the measurement results of the absorbance, if the difference between the obtained measured values of absorbance in the well immobilizing periostin or a partial-length periostin and the measured values of absorbance in the control well (into which phosphate-buffered saline was poured instead of periostin or partial-length periostins) is 0.2 or more, an anti-periostin monoclonal antibody was determined to have bound to the periostin or the partial-length periostin immobilized to the well of the microtiter plate.

B1: anti-periostin monoclonal antibody (SS19D) (antibody, V domains shown)
VH: QVQLQQPGSELVKPGASVKLSCKASGYTFTSYWMHWVKQSPGQGLEWIGEINPSNGRTNYNEKFKTKATLTVDKSSSTAYMQLNSLTSEDSAVYYCVRGDEGFAYWGQGTLVTVSA
VL: NIVLTQSPASLAVSLGQRATISCSASESVDSYGRSFIHWFQQKPGQPPKLLIYLASYLESGVPARFSGSGSRTDFTLTIDPVEADDAATYYCHQNNEDPPTFGGGAKLEIKR
For the molecule B1, the binding result is recorded as “no binding” in experiment [1]; “no binding” in experiment [2]; “no binding” in experiment [3]; “no binding” in experiment [4]; “no binding” in experiment [5]; “binds” in experiment [6].
